Values joined by “and” are separate entries in the source; they are usually repeats but may differ in a detail not shown here. Equal entries are not always repeated. Bridges are numbered along the chain shown (N, C = ends). Where no end group is shown, it is not given here. [ ]: non-standard residue; d: D form. Phe(4-NO2) = N[C@@H](Cc1ccc([N+](=O)[O-])cc1)C(=O)O; pT = C[C@@H](OP(=O)(O)O)[C@H](N)C(=O)O; pS = N[C@@H](COP(=O)(O)O)C(=O)O; azidoPhe = azido phenylalanine; β3hS = N[C@@H](CO)CC(=O)O; βAla = NCCC(=O)O

Holding throughout (conditions): both partners purified
One assay has as its target T1, 14-3-3γ (UniProt P61981 1-247).
T1 construct: 14-3-3 protein, gamma isoform; also called 14-3-3 protein
T1 sequence (looked up): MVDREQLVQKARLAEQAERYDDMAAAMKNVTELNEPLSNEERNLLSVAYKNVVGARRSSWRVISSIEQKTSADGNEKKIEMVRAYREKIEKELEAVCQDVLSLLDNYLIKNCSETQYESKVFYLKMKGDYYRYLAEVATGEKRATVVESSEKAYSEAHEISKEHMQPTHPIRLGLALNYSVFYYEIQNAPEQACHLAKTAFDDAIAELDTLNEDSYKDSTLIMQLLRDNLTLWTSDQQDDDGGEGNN
Nature of the assay: fluorescence polarisation; fluorescence anisotropy; 14-3-3γ titrated to FITC-labeled macrocycles F1-F4 and pepD (10 nM); mean ± SD, n = 3.

Assay [1] addresses T2, full-length human 14-3-3β protein with a N-terminal His6 tag (human, UniProt P31946 1-246).
T2 construct: 14-3-3 protein beta/alpha, human, full length; Treated as a dimer in the thermodynamic model (Pp = 14-3-3 dimer); also called Pp (14-3-3 dimer); source: E. coli BL21(DE3), pPROEX HTb, purified (Ni-NTA, dialysis)
T2 sequence (looked up): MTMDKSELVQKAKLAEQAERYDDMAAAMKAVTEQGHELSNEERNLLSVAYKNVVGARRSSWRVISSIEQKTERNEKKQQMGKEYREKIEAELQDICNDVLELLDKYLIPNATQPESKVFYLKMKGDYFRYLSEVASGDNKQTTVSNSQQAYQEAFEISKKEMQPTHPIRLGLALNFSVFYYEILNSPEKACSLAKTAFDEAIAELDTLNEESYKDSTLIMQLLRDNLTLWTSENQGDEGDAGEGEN
As to the kind of experiment: fluorescence polarisation; 2D fluorescence anisotropy titration, replicate 2: 14-3-3β titrated (from 250 µM) to FITC-labeled macrocycle or pepD with varying ChREBP peptide starting at 10 μM; KD I (binary affinity of the macrocycle for a site of the 14-3-3 dimer) fitted by the thermodynamic cooperativity model with KD II fixed at 1.5 µM; 10 mM HEPES pH 7.4, 150 mM NaCl, 0.1% Tween20, 0.1% BSA; room temperature.

The target of assay [2] is T2, full-length human 14-3-3β protein with …. Nature of the assay: fluorescence polarisation; 2D fluorescence anisotropy titration, replicate 1: 14-3-3β titrated (from 250 µM) to FITC-labeled macrocycle or pepD with varying ChREBP peptide starting at 20 μM; KD I (binary affinity of the macrocycle for a site of the 14-3-3 dimer) fitted by the thermodynamic cooperativity model with KD II fixed at 1.5 µM; 10 mM HEPES pH 7.4, 150 mM NaCl, 0.1% Tween20, 0.1% BSA; room temperature.

For assay [3] the target is unchanged. Nature of the assay: fluorescence polarisation; selectivity assay by fluorescence anisotropy: acetylated 14-3-3 client peptides titrated (from 100 μM, 2-fold) to 10 nM FITC-labeled macrocycle F2 or F4 bound to 14-3-3β (7 μM for 2, 2 μM for 4); 10 mM HEPES pH 7.4, 150 mM NaCl, 0.1% Tween20, 0.1% BSA; room temperature.
The target of assay [4] is T3, full-length human 14-3-3γ protein with a N-terminal His6 tag (human, UniProt P61981 1-247).
T3 construct: 14-3-3 protein gamma, human, full length; TEV cleavage of the His6 tag is told only for the 14-3-3σ ΔC construct; source: E. coli BL21(DE3), pPROEX HTb, purified (Ni-NTA, dialysis)
T3 sequence (looked up): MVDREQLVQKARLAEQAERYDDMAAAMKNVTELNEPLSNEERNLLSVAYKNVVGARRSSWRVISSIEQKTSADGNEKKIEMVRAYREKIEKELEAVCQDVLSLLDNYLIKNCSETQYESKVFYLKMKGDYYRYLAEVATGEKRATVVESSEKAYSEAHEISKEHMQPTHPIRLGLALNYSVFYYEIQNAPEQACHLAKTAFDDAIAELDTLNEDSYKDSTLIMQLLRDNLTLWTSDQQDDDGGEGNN
As to the kind of experiment: ITC; 200 μM macrocycle or pepD titrated to 20 μM 14-3-3γ; 25 mM HEPES pH 8.0, 100 mM NaCl, 10 mM MgCl2, 500 µM TCEP; 25 °C; fitted with SEDPHAT; mean ± SD, n=3.

The target in assay [5] is T4, recombinant 14-3-3γ-Twinstrep protein (human, UniProt P61981 1-247).
T4 construct: 14-3-3 protein gamma; The expression of the Twinstrep construct is not described; also called Twinstrep-tagged 14-3-3γ; source: recombinant
T4 sequence (looked up): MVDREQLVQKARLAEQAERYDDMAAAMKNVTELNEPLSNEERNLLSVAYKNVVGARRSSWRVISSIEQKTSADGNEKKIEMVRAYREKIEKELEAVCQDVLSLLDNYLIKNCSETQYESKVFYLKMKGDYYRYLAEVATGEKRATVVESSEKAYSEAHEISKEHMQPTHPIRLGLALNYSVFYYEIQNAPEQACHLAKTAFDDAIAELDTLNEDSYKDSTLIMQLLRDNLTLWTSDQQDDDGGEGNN
As to the kind of experiment: SPR; kinetic fit (1:1 model, global); Twinstrep-tagged 14-3-3γ captured on a Strep-Tactin XT chip (about 1000 RU), 2-fold dilutions of Ac-macrocycle or pepD injected; multi-cycle; 25 °C; 10 mM HEPES pH 7.4, 200 mM NaCl, 50 μM EDTA, 0.005% P20; two replicates and their average.

In assay [6] the target is T4, recombinant 14-3-3γ-Twinstrep protein. As to the kind of experiment: SPR; affinity fit (steady-state response against concentration, 1:1 model); Twinstrep-tagged 14-3-3γ captured on a Strep-Tactin XT chip, 2-fold dilutions of Ac-macrocycle or pepD injected; 25 °C; 10 mM HEPES pH 7.4, 200 mM NaCl, 50 μM EDTA, 0.005% P20; two replicates and their average.

B1: macrocycle F3 (peptide)
chain: SFSXFKXK
modifications: not fully specified; fluorescein isothiocyanate (FITC) on the side chain of the first lysine; β-alanine after it; phosphoserine; triazole from azido phenylalanine (replacing Nph(+1)) cyclised to the backbone amide nitrogen between Lys(+5) and Nph(+4), linker x = 3; β-homoSer(+2); β-Ala(+3); 4-nitrophenylalanine Nph(+4)
In turn, B1 displayed a Kd in the assay with 14-3-3γ of 230 nM.

B2: FITC-labeled pepD (peptide)
chain: [pS][Phe(4-NO2)][β3hS][βAla][Phe(4-NO2)]K
modifications: also: FITC label, site not given here
For the molecule B2, the Kd was determined as 7.5 µM in assay [1] and 8.9 µM in assay [2].

B3: fluorescently labeled macrocycle F2 (peptide)
chain: SFSXFKXK
modifications: not fully specified; phosphoserine; Phe(+1) triazole cyclised to the backbone amide nitrogen of Lys(+5) through a linker x = 2 (from 3-butyn-1-ol); β-homoSer(+2); β-Ala(+3); Nph(+4); β-Ala and a lysine whose side chain carries fluorescein isothiocyanate (FITC) after Lys(+5)
As to B3, the Kd in assay [1] amounted to 11.9 µM; in assay [2], 12.6 µM.

B4: TAZ client peptide (peptide)
peptide: Ac-HVRSH[pS]SPASLQLG
notes: TAZ, 14-3-3 client peptide; No C-terminal group is printed for this peptide; source: synthetic peptide, bought: GenScript Biotech Corp
On to B4, for which the binding result in assay [3] is “binds”.

B5: USP8 client peptide (peptide)
peptide: Ac-KLKRSY[pS]SPDITQ-NH2
SMILES: CC[C@H](C)[C@H](NC(=O)[C@H](CC(=O)O)NC(=O)[C@@H]1CCCN1C(=O)[C@H](CO)NC(=O)[C@H](COP(=O)(O)O)NC(=O)[C@H](Cc1ccc(O)cc1)NC(=O)[C@H](CO)NC(=O)[C@H](CCCNC(=N)N)NC(=O)[C@H](CCCCN)NC(=O)[C@H](CC(C)C)NC(=O)[C@H](CCCCN)NC(C)=O)C(=O)N[C@H](C(=O)N[C@@H](CCC(N)=O)C(N)=O)[C@@H](C)O
notes: USP8, 14-3-3 client peptide; source: synthetic peptide, bought: GenScript Biotech Corp
Regarding B5, in assay [3], the binding result is on record as “binds”.

B6: ExoS client peptide (peptide)
peptide: Ac-QGLLDALDLAS-NH2
notes: ExoS (exoenzyme S), 14-3-3 client peptide; source: synthetic peptide, bought: GenScript Biotech Corp
Regarding B6, in assay [3], the binding result was “binds”.

B7: ERα client peptide (peptide)
peptide: Ac-EGFPA[pT]V-OH
SMILES: CC(=O)N[C@@H](CCC(=O)O)C(=O)NCC(=O)N[C@@H](Cc1ccccc1)C(=O)N1CCC[C@H]1C(=O)N[C@@H](C)C(=O)N[C@H](C(=O)N[C@H](C(=O)O)C(C)C)[C@@H](C)OP(=O)(O)O
notes: ERα (estrogen receptor alpha), 14-3-3 client peptide; source: synthetic peptide, bought: GenScript Biotech Corp
Turning to B7, the binding result in assay [3] was “binds”.

B8: macrocycle 3 (peptide)
chain: Ac-[pS][azidoPhe][β3hS][βAla][Phe(4-NO2)]K
modifications: bridge 2-6; not fully specified (bridges); also: triazole of Phe(+1) (from azido phenylalanine) cyclised to backbone amide nitrogen of Lys(+5)
Consider B8, for which the Kd was 167 nM in assay [4]; 220 nM and 233 nM and 230 nM in assay [5]; 228 nM and 253 nM and 240 nM in assay [6].

B9: macrocycle F4 (peptide)
chain: SFSXFKXK
modifications: not fully specified; fluorescein isothiocyanate (FITC) on the side chain of the first lysine; β-alanine after it; phosphoserine; triazole from azido phenylalanine (replacing Nph(+1)) cyclised to the backbone amide nitrogen between Lys(+5) and Nph(+4), linker x = 4; β-homoSer(+2); β-Ala(+3); 4-nitrophenylalanine Nph(+4)
In the case of B9, the Kd in the assay with 14-3-3γ came out at 2100 nM.

Source of the values: article PMC12865133, “Macrocyclic Molecular Glues for the 14‐3‐3/ChREBP Interaction: Affinity and Cooperativity in an Inverse Relationship” (Angewandte Chemie (International Ed. in English), 2025).
